Among the data in a protein production outcome set (Wang et al. 2014) are protein production values, retold here.

The series can be described thus: label from the status in PepcDB records.

In the case of “MIPLHRLCRALALLMGFGPTLSALAASAPEGLPLLGTGEGLEVRGCETLVLRGGQVVRLAEIIGPEAEGAARAQAALGALVVGHSLRLYGESPLADRYGRLHAHGVTEEGRWVQGALVEAGLARVVIREGESALSGALLALEERARRAGRGLWPPASAASPPPGALAATGDGFQVVEGRIVSAARAGRRIYLNFGADWRSDFTVSLSEAMLARLLATGRDPLAWAGRRVRVRGWVTRRNGPLLDLPHPMALEGPLDGPPFLSPKENLDLEYPGN”, the protein production entry was “failed”. With “MIQALLQRYEKKIERRKLEKRTAFGAFAGRIGLVSNLFLFVSKFMIGLLSGSVSIMADAINSLSDTISSVLTLVGFYIAGKPADKEHPYGHERFEYISGMLVSLVITFIGFEFLTTSVDRILHPESIKVTPILFAVLALSIGIKIWQGLFYKKVSAKIDSQALVASAKDSFNDVYTTLAVLISAFIEGVTGLRIDGYIGFLIAAYIIYSGLQLIREFINELMGMRPSQTEIDEMKNVLSKMETIVGYHDLLIHNYGPSQTFASVHIEIDDRWDLNKAHQTIDAIEAKFKEELDVNLVCHIDPVNLYDPTQQFVHQTIKKIIRSFDASLKVHDIRLVTHGEEPKILFDLVLPTESKLSEFELGVEIQRQVYEKIGRYKVEITFDHTYLLQ”, the protein production result is “failed”. To “MIQCILVMLGGGIGAVIRGFVTDVFNQKFNTSLPIPTLLINVVGSFCIGLLMGMCLNINWINPFIIVGILGGLTTFSTLSSELVKLLTTPKQINLFILYSILQYGVSFVACLLGYYLF” belongs “failed”; to “MIQLKNVGITLSGKGYERFSLENINLEVNGEKVIILGPNGSGKTTLLRAISGLLPYSGNIFINGMEVRKIRNYIRYSTNLPEAYEIGVTVNDIVYLYEELKGLDRDLFLEMLKALKLGEEILRRKLYKLSAGQSVLVRTSLALASQPEIVGLDEPFENVDAARRHVISRYIKEYGKEGILVTHELDMLNLYKEYKAYFLVGNRLQGPISVSELLESSIVEGERNDALLVLDIMDKKVSIVKGDLGMKFGALGSLNRIYGIIGA”, “not failed”; to “MIQQLLVTFPPMLFGAQALLTLLLIKGDICPGQRGRLHKMLPAIGVLWLAVASLRIEAFMVVFAIFYFYSQVQTKKTREKGPLWALHLANGLAFAYVSIQVFEQPNWPASAAMAVMIFFLGASFSQLLLTIARSRLQAFHRILPVTGIVSGMLLVLATLFSSYQLDEATLASATQPILISLALLISTIVVWCWHIFTHKAPEKVQLSIALLLALASMTSLQGLFALAV”, “failed”. In the case of “MIRAVFFDFVGTLLSVEGEAKTHLKIMEEVLGDYPLNPKTLLDEYEKLTREAFSNYAGKPYRPIRDIEEEVMRKLAEKYGFKYPENFWEIHLRMHQRYGELYPEVVEVLKSLKGKYHVGMITDSDTEYLMAHLDALGIKDLFDSITTSEEAGFFKPHPRIFELALKKAGVKGEEAVYVGDNPVKDCGGSKNLGMTSILLDRKGEKREFWDKCDFIVSDLREVIKIVDELNGQ” it was “not failed”. For the sequence “MIRFQPITTSDVQHYKFMEELLVESFPPEEYRELEHLREYTDRIGNFHNNIIFDDDLPIGFITYWDFDEFYYVEHFATNPALRNGGYGKRTLEHLCEFLKRPIVLEVERPVEEMAKRRINFYQRHGFTLWEKDYYQPPYKEGDDFLPMYLMVHG”, the protein production result is on record as “failed”. With “MIRIDSVTKRYPDGTVAVDRLSLEIPDRSITVLVGPSGCGKTTTLRMINRMVEPSEGTILLDGADITKQPVNTLRRSMGYVIQNAGLFQHRTIVDNIATVPRMLGWGKERARSRARELMERVGLDASLARRYPYQLSGGQQQRVGVARALASDPPVLLMDEPFSAVDPVVRKGLQEELLRIQDELGKTIVFVTHDIDEAIRLGTMVAVMRTGGHLAQFAPPAELLSAPADAFVEDFLGTDRGIRRLSFFPSAGLELLTTPVVAIDSTAEQIAARGTPDVPYLLVTDVDGKALGWSEPKDLTAGKVVPERLLPYGRPFESGKDSLRAALDCAVLSPTGWAVAVDGTGRVVGVVSQETIGEAIRGAHAERRKADLAGLEHHHHHH”, the protein production result is “not failed”. To “MIRISIALLDHQEQLPNMFENLSEDLRKALNEAGYIKPTRVQEVVIPELMNGKSVIVQAKTGSGKTAAYVIPILERNSTALILSPTRELATQILDEIKKLGKYKQIDVSLIIGGMSYDDQRQSKIVVGTPGRLLDLWSKGKIDFSGYDFVIVDEADRMLDMGFIDDIRMILNHCNAKIAGFFSATIPDEIMTLAKEFSKDLREIVLDEYKPVEEVKQKFVKVRNDWNDKVSKLLEEINGEKILVFARTRDRARKLYYLLKGKGVNVGLLSGDMPQSVRLKNFYGFKKGKYNVLVATDLASRGIDIIDVNKVINFDIPRDVETYIHRVGRTGRMGRVGQAITFYTFREADMIKRINNLLAI” belongs “failed”; to “MIRKWDTKDTAPLLALWLDSTIHAHPFISESYWRDSVAVVRDVYLPAASTWVWEQDGELKGFVSVLDSRFVGALFVAPGATRQGIGRALLDEVKQHYAWLSLEVYQKNESAVSFYHAQGFRIEDCAWQDDTQHPTWIMRWPA”, “not failed”. To “MIRMTVKVPHPLRVVAVSGGMQRPSKSVALAEHLLALIAEQLPCERHLVEIGALAPQFAGAPWRSHLPGSVEQALALVEQADVLVVATPVYRGSFTGLFKHFFDFIDQDALVDTPVLLAATGGSDRHALMIDHQLRPLFSFFQARTLPLGVYATDRDFLDYRVHSQALAERASLAVQRALPLIELTRHARSITAQNVAAA” belongs “failed”. To “MIRPEYLRVLRKIYDRLKNEKVNWVVTGSLSFALQGVPVEVHDIDIQTDEEGAYEIERIFSEFVSKKVRFSSTEKICSHFGELIIDGIKVEIMGDIRKRLEDGTWEDPVDLNKYKRFVETHGMKIPVLSLEYEYQAYLKLGRVEKAETLRKWLNERKG” belongs “not failed”; to “MIRPTVQENFSRYADCIAACNAAAAACLKCAAACLEEPDTRKMTRCIALDMDCAGIANLAASYMLRNSEFAPLVCEDCAEVCKWCKEECERYDHWHCQECAKACAACMEMCLKMTA”, “failed”. As to “MIRVLFAFIILLLSVFLGIQLNKDPGYVLIAINNWTIETTLWVSVFGLFFLFFLIYGLVQFCNKITRMPGMVNKWHSRRLAQKAQATTRKGLIEYSEGYWQKAKNHLIQALPNTDTPLLNYLTAARAAQKMGDSKLRDHYLREAQQSMPEAKIAVELTQAQLQLANHQWEQALATLKHLQDLAPRHPYVLKLLMNLYEEIKDWQQLIALLPDLKKNHIISDQAFEQLQKNTYLQAMIDLAKHNQSDGITKLYQTLPKTLVNDTAITAEYARFLIRNQDYDQAEYHLKRCLRKELDNRLIELYSLLPCEENQLLFAESLLKKNPHSAALYLCLGRMCLSRHLWGKAKHYLEQSIELNPTPVAFIELGKLHEKLNDPLSSGSCYKKGLELITKDELS”, the protein production result is “failed”. Regarding “MISAHCNLRLLCSSDSSASASQVAGTTEVVENLVTNDNSPNIPEAIDRLFSDIANINRESMAEIADIQIEEMAVNLWNWALTIGGGWLVNEEQKIRLHYVACKLLSMCEASFASEQSIQRLIMMNMRIGKEWLDAGNFLIADECFQAAVASLEQLYVKLIQRSSPEADLTMEKITVESDHFRVLSYQAESAVAQGDFQRASMCVLQCKDMLMRLPQMTSSLHHLCYNFGVETQKNNKYEESSFWLSQSYDIGKMDKKSTGPEMLAKVLRLLATNYLDWDDTKYYDKALNAVNLANKEHLSSPGLFLKMKILLKGETSNEELLEAVMEILHLDMPLDFCLNIAKLLMDHERESVGFHFLTIIHERFKSSENIGKVLILHTDMLLQRKEELLAKEKIEEIFLAHQTGRQLTAESMNWLHNILWRQAASSFEVQNYTDALQWYYYSLRFYSTDEMDLDFTKLQRNMACCYLNLQQLDKAKEAVAEAERHDPRNVFTQFYIFKIAVIEGNSERALQAIITLENILTDEESEDNDLVAERGSPTMLLSLAAQFALENGQQIVAEKALEYLAQHSEDQEQVLTAVKCLLRFLLPKIAEMPESEDKKKEMDRLLTCLNRAFVKLSQPFGEEALSLESRANEAQWFRKTAWNLAVQCDKDPVMMREFFILSYKMSQFCPSDQVILIARKTCLLMAVAVDLEQGRKASTAFEQTMFLSRALEEIQTCNDIHNFLKQTGTFSNDSCEKLLLLYEFEVRAKLNDPLLESFLESVWELPHLETKTFETIAIIAMEKPAHYPLIALKALKKALLLYKKEEPIDISQYSKCMHNLVNLSVPDGASNVELCPLEEVWGYFEDALSHISRTKDYPEMEILWLMVKSWNTGVLMFSRSKYASAEKWCGLALRFLNHLTSFKESYETQMNMLYSQLVEALSNNKGPVFHEHGYWSKSD”, the protein production result is on record as “failed”. For “MISFLLSLVLLIVGYFTYGKFVDKTFGTNDSIETPAESMADGVDYVPMSWPRIFLIQFLNIAGLGPIFGAIAGALWGPVAFLWIVFGCIFAGAVHDYFTGVLSIRNKGVSVAELVGKYLGEIPRKIMVIFSVVLLILVGVVFLTGPADLLKTLTGIDRDIFIVIIVVYYIAATVLPVDKVIGKIYPIFGLCLLIMAVGIGAGIVIEGYNIPEIQLANFHPEGTPIFPFLFITIACGAISGFHATQSPIMARCVKKESEARKVFYGAMIAEGVIALVWAAAAMSFFGDTNGLQEILKAGGPATVVNTISNTVMGKVGAVLAILGVVACPISSGDTAFRSARLTIADAFKLKQDKVIDRFKIAIPLFVVGIALTFIDFGIIWRYFSWSNQTLAMIMLWAASAYMLKAHNNYWITLVPAVFMSAVTCSYILQAPEGFRLNATFSNIAGVVFALVLFGIFIKYCKKENNENCEIVEIEEVKEVIKNK”, the protein production entry was “failed”.

For the sequence “MISILLFALTSFLIGLSGAMAPGPLLTVTVSDSIRRGFRAGPLLVAGHVLGEALLVTLILMGLGYILRSGPAPAILGTAGGAVLIWMGILGFRDSEDTENIPEGGSILRGAIISFANPYFFLWWGAVGAALMYRGLELAGVLGLLAFLAGHWSSDLTWYSLVSFLSSRKSFRMNGRPYKIVMMILSLFLILFGVYFLIESLKAISGYS”, the protein production result is reported as “failed”. Take “MISIVIPLYNQVAYTQLCVQSLRRAGLNGVDVLLIDNGSTDGTAEYLKSCSDLRVIRNRENLGCAGAWNQGVRETTSEWVMILNNDVVVSPGWLDGLLEAAGKEGLDVVSPAIREGEYNYDIEGYSQEFVGRMGDVVRRGVADGICFMVRRRVFEVVGLFDENFRIGQFEDADFFRRARNAGFRLGTTGRSFIHHFGSVTQDAIRKNRPERPYVAENRAYFREKWQLTRGRRLIERWRRKLREFAWQKCERMFHGHTLKEKWLGGRLRYYLEHHHHHH”: the protein production result is reported as “failed”. In the case of “MISKAISAQCRHLHRAAVLVAVMSALAATGCSKKEAPQAPAPSAGTPQAGAPAAMPEGMSGQQQTAMGRAIFNKRCASCHGTDGNGAGSRSGPALDQAQFKYGRTPEAIRESIVKGRPNGMPAFGAAFQEIEIDTLVGYVMGLTKQ” it was “failed”; in that of “MISLQFFITAFVVVLAPGTGVIYTLAIGLGRGRSAAAWAALGCTLGILPHLAAAILGLAAILHSSALLFQLVKAAGVAYLLYLAWQALRSDGALAIRSEHSHQPGWRIAWRGALINILNPKLSVFFLALLPPFLSGNPASATAEMSLLGLVFMAMTFAVFLLYGAFASAARTYLMQSERALRWMGRGFALVFAGLAARLAMERA”, “failed”; in that of “MISQASRFAPDQPPKLSCEYLTERVRALFGPHPFASQMSGDQVASLLPEYLAMSQAFPYLQAGSQRDLIFDAMHQNRDIGRDIELTSVVANFICWDETGGHGGILRGGKAALPDILLTENFHSNLLRKDAARLLGRAIRPNYSDRTKQYLHSLYAGLSSKDPLVRCAYMVAFELHAADMIQSLWTTLVKTFKARPDDLEYFRGHVGGEDPAEKYHGEMTGRLIGELVQPGLNDRFLNEFGRAYRLSVQWCRDLLGTAARTGDDHSEMQHHGRCHCGAIKFYVNAPRELSAVRCNCSICQMSGFVHLLVPGDKLRIECGEEFLTTYQFNKNIARHTFCRLCGVKPFYRPRSNPSGYSVNIRCLDRKTIEHLRISEFDGAHWEQAFLSMQQDPESCFEDQRSELEWRAQ”, “failed”.
